Positions count from the first letter of the chain named. Names and notes keep the numbering of the source.

The target of test [1] is T1, corticotropin-releasing factor (CRF) receptor (Rattus norvegicus, UniProt P35353).
T1 construct: expressed in transfected cells; host or cells: HEK293 stably co-expressing pcCRFR1 and bovine α3 T537M
T1 sequence (P35353 24-415): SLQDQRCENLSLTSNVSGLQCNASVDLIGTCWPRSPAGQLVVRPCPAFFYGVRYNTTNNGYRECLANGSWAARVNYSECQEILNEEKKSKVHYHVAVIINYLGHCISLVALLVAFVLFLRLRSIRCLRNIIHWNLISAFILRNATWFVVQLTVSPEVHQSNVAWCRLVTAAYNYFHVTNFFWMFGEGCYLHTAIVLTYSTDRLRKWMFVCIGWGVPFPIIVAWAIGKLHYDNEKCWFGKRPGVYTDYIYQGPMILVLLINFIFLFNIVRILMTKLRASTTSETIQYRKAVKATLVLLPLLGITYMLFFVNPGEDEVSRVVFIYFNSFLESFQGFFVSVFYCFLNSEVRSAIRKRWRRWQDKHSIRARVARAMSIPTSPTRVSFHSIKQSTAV
The test is described as follows: Fluorescence-optical Ca2+ measurement: CRF receptor with T537M cAMP sensor. The class given is cell-based. The conditions noted are these: agonist CRF 100-1,000 pM, FIG. 5B. The protocol:
The CRF receptor was cloned by carrying out a PCR of primary strand cDNA of rat hypophyses, using the primers #843 (5′-[…]-3′) (SEQ ID NO 11) and #842 (5′-[…]-3′) (SEQ ID NO 12). A 100 μl PCR mixture comprised 10 ng of primary strand cDNA, 1×PCR buffer for Taq polymerase incl. 1.5 mM of MgCl2, 200 μm of dNTPs, 1 U of Taq polymerase and in each case 150 ng of the two primers. The PCR conditions were as follows. 2 minutes of denaturation at 94° C., followed by 44 cycles of in each case 45 s at 94° C., 45 s at 56° C., 75 s at 72° C. The 1271 bp fragment was cloned via BamHI and SacI in pBluescript SK^—into (pBCRFR1). […]
FIG. 5B depicts the fluorimetrically measured change in intracellular Ca^2+ concentration in cells which stably express both the corticotropin-releasing factor (CRF) receptor and the T537M mutant of the α3-CNG channel. The time course of fluorescence intensity after stimulation of the cells with the agonist CRF is shown. […]
Cells which stably express the corticotropin-releasing factor (CRF) receptor and the T537M mutants of the α3-CNG channel were treated with the helical antagonist 9-41 (Rivier J., Rivier C., and Vale W. W. (1984) Synthetic competitive antagonists of corticotropin-releasing factor: effect on ACTH secretion in the rat. Science, 224, 889-891), before being stimulated with CRF (1 nM). The time course of fluorescence intensity is shown. […]

In the next test the target is T2, Adenosine A2B receptor (Rattus norvegicus, UniProt P29276).
T2 construct: host or cells: primary rat astrocytes
T2 sequence (P29276 1-332): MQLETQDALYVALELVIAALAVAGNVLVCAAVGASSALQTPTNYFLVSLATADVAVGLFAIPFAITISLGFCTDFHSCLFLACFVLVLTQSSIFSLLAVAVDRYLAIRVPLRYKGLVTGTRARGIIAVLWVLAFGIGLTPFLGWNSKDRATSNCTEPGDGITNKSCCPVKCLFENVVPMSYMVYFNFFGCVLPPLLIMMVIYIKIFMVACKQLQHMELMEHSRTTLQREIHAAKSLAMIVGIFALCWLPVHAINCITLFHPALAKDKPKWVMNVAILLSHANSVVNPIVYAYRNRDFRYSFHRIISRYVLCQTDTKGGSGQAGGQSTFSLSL
The conditions noted are these: Peakman and Hill 1994, primary rat astrocytes; read-out: K1/2 value indicated in the literature; cited from earlier work.

Test [2] has as its system endogenous phosphodiesterase (PDE). Briefly: Fluorescence-optical Ca2+ measurement: phosphodiesterase inhibition with T537M cAMP sensor. The class given is cell-based, human. The conditions noted are these: IBMX 0-100 μm, then 5 μm forskolin, FIG. 5E. The source says: (§1) The excitation wavelength was 485 nm. The emission wavelength was 520 nm.
The effect of a phosphodiesterase (PDE) inhibitor on the forskolin-induced change in intracellular Ca^2+ concentration is shown. Cells which stably express the T537M mutants of the α3-CNG channel were first treated with different concentrations of the PDE inhibitor IBMX and then stimulated with 5 μm forskolin. […] The IBMX concentration was 0 μm (filled circles), 10 μm (open circles), 50 μm (filled triangles) or 100 μm (open triangles).

Test [3] deals with Drosophila dopamine receptor (Drosophila melanogaster, UniProt P41596). The conditions noted are these: dopamine 25-600 nM, FIG. 5A.
Drosophila dopamine receptor, sequence (P41596 20-511): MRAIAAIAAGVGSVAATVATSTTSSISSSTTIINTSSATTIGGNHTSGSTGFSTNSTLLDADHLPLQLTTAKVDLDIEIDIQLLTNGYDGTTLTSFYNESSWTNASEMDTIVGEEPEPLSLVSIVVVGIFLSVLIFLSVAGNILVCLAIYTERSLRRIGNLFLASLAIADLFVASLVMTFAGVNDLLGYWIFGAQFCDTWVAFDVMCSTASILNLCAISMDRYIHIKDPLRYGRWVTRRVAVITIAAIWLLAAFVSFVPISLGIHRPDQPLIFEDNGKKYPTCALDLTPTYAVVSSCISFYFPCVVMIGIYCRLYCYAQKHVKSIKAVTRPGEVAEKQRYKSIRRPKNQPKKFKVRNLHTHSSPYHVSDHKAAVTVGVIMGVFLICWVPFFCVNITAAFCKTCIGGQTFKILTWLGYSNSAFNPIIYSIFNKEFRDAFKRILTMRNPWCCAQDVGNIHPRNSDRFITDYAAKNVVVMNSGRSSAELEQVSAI
Experimental: On the day after transfection, the cells were seeded into a multiwell plate with 96 wells. The cell density per well was 2×10^4 cells.
The fluorimetric measurements of intracellular Ca^2+ concentrations were carried out in multiwell plates with 96 wells (FIG. 5A-5G). The cells were loaded with the Ca^2+-sensitive fluorescent dye Fluo-4 one hour before the measurement. The loading solution contained 120 mM of NaCl, 3 mM of KCl, 50 mM of glucose, 10 mM of Hepes (pH 7.4), 3 mM of MgCl2 and 4 μm of Fluo4-AM (molecular probes). The measuring solution contained 120 mM of NaCl, 3 mM of KCl, 50 mM of glucose, 10 mM of Hepes (pH 7.4) and 3 mM of CaCl2. The time course of the change in fluorescence intensity after application of agonists, antagonists, enzyme activators or enzyme inhibitors was registered using a fluorescence reader (FLUOstar, BMG-Labtechnologies). The excitation wavelength was 485 nm. The emission wavelength was 520 nm.
Another test has as its system α3-CNG channel. Briefly: Fluorescence-optical Ca2+ measurement: cAMP sensor sensitivity of α3-CNG channel variants after adenosine stimulation. The class given is cell-based.
Excerpt: as §1
The extent of the change in intracellular Ca^2+ concentration (fluorescence signal) was plotted as a function of time. […] Cells which stably express the T537S mutant of the α3-CNG channel were also stimulated for comparison.

In test [4] the test system is homooligomeric bovine α3 CNG channels. The test is described as follows: Patch clamp electrophysiology of inside-out patches: activation of heterologously expressed CNG channels by cAMP and cGMP. The conditions noted are these: for Hill coefficient n, cAMP / Hill coefficient n, cAMP, averaged / Hill coefficient n, cGMP / Hill coefficient n, cGMP, averaged: +100 mV; for Hill coefficient n, cAMP: fit of FIG. 1B / 3B; for Hill coefficient n, cAMP, averaged / Hill coefficient n, cGMP, averaged: normalized Hill equation; for Hill coefficient n, cAMP, averaged: averaged parameters (FIG. 1C / 3C); for Hill coefficient n, cGMP: fit of FIG. 2B / 4B; for Hill coefficient n, cGMP, averaged: averaged parameters (FIG. 2C / 4C); for relative selectivity: times more selective for cAMP: quotient K1/2 cGMP / K1/2 cAMP; for relative selectivity: times more selective for cGMP: quotient of K1/2 values. The class given is biochemical. The source says:
For this purpose, the corresponding nucleic acids were cloned into the expression vector pcDNA3.1 (Invitrogen) (see Methods). The expression constructs were then used to transform the cells of the human embryonic kidney cell line 293 (HEK293 cells) and the corresponding proteins were functionally expressed therein either transiently or stably (see Methods). The results of the studies are depicted in FIGS. 1-4. FIGS. 1-4 B depict the dependence of the average current on the cAMP concentration and cGMP concentration, respectively, in each case in the form of a dose-response relationship. The results of these measurements were used to calculate the sensitivity of the CNG channels to cAMP and cGMP. […] EMBO J., 13, 5040-5050. For electrophysiological characterization, the cells were transferred to glass slides which had been coated with poly L-lysine, on the day after transfection. The electrophysiological studies were then carried out on the following day. […] The electrophysiological characterization of the genetically modified CNG channels was carried out using the patch clamp technique under voltage clamping conditions. […] inside-out patches were excised from cells which stably expressed genetically modified or wild-type CNG channels. The bath solution containing different concentrations of cyclic nucleotides was used to flow over the membrane patches. Starting from a holding voltage of 0 mV, sudden voltage changes were applied to different test voltages between -100 mV and +100 mV at the patch with a step width of 20 mV. The currents were registered and analyzed using standard methods.

Where [5] appears, read: maximum stimulation with 25 μm adenosine.

“CRF: corticotropin-releasing factor, agonist of the CRF receptor”: the “speed and extent of the change in Ca2+” value in test [1] was “depend on the CRF concentration”.
As for `Nc1ncnc2c1ncn2[C@@H]1O[C@H](CO)[C@@H](O)[C@H]1O` [adenosine], the EC50 at Adenosine A2B receptor was 5 µM.
Turning to `CC(C)Cn1c(=O)n(C)c(=O)c2[nH]cnc21` [IBMX], the “extent of the forskolin-induced change in intracellular Ca2+ concentration” value in test [2] was “depend on the concentration of the PDE inhibitor”.
In the case of `NCCc1ccc(O)c(O)c1` [dopamine], the “speed and extent of the change in Ca2+ concentration” value in test [3] is given as “depend on the dopamine concentration”.

B1: T537M: bovine α3 CNG channel with methionine in place of threonine T537 (SEQ ID NO 4) (protein, UniProt Q03041 1-663, looked up, variant T537M)
Cyclic nucleotide-gated …: MTEKANGVKSSPANNHNHHAPPAIKASGKDDHRASSRPQSAAADDTSSELQQLAEMDAPQQRRGGFRRIARLVGVLREWAYRNFREEEPRPDSFLERFRGPELHTVTTQQGDGKGDKDGEGKGTKKKFELFVLDPAGDWYYRWLFLIALPVLYNWCLLVARACFSDLQKGYYIVWLVLDYVSDVVYIADLFIRLRTGFLEQGLLVKDTKKLRDNYIHTMQFKLDVASIIPTDLIYFAVGIHNPEVRFNRLLHFARMFEFFDRTETRTSYPNIFRISNLILYILIIIHWNACIYYAISKSIGFGVDTWVYPNITDPEYGYLSREYIYCLYWSTLTLTTIGETPPPVKDEEYLFVIFDFLIGVLIFATIVGNVGSMISNMNATRAEFQAKIDAVKHYMQFRKVSKEMEAKVIRWFDYLWTNKKSVDEREVLKNLPAKLRAEIAINVHLSTLKKVRIFQDCEAGLLVELVLKLRPQVFSPGDYICRKGDIGKEMYIIKEGKLAVVADDGVTQYALLSAGSCFGEISILNIKGSKMGNRRMANIRSLGYSDLFCLSKDDLMEAVTEYPDAKRVLEERGREILMKEGLLDENEVAASMEVDVQEKLEQLETNMDTLYTRFARLLAEYTGAQQKLKQRITVLETKMKQNNEDDSLSDGMNSPEPPAEKP
On to B1, for which the “change in fluorescence signal (intracellular Ca2+)” value (shortened to “change in fluorescence signal”) with α3-CNG channel (stimulation with 3 μm adenosine (about half maximum)) is listed as “distinct increase in the fluorescence signal”. Moreover, in test [4], the “Hill coefficient n, cAMP” value came to 2.4; the “Hill coefficient n, cAMP, averaged” value is 2.4; the “Hill coefficient n, cGMP” value turned out to be 2.0; the “Hill coefficient n, cGMP, averaged” value was 1.9. For the same molecule, the “relative selectivity: times more selective for cAMP” value in test [4] is reported as “about 6 times”. Moreover, in test [4] (ratio of K1/2 values), the “times less sensitive to cGMP in comparison with the T537S mutant” value amounted to 21 times, the “times less sensitive to cGMP in comparison with the wild type” value is given as “about 9 times”, the “times more sensitive to cAMP in comparison with the T537S mutant” value was “about 5 times” and the “times more sensitive to cAMP in comparison with the wild type” value was “about 30 times”.

B2: Wild Type: wild-type α3 subunit of the bovine CNG channel (SEQ ID NO 2) (protein)
chain: B1 Cyclic nucleotide-gated … with M537T
modifications: Bovine
With B2, the “change in fluorescence signal” value with α3-CNG channel (setting [5]) is recorded as “no increase in the fluorescence signal”. In addition, in test [4], the “Hill coefficient n, cAMP, averaged” value turned out to be 2.0; the “Hill coefficient n, cGMP, averaged” value was determined as 2.0; the “relative selectivity: times more selective for cGMP” value is “about 50 times”.

B3: T537V: bovine α3 CNG channel with valine in place of threonine T537 (SEQ ID NO 6) (protein)
chain: B1 Cyclic nucleotide-gated … with M537V
modifications: Bovine
Consider B3, for which, in test [4], the “Hill coefficient n, cAMP” value amounted to 2.2; the “Hill coefficient n, cAMP, averaged” value is given as 1.5; the “Hill coefficient n, cGMP” value amounted to 2.2; the “Hill coefficient n, cGMP, averaged” value is given as 2.1. The “relative selectivity: times more selective for cAMP” value in test [4] was “about 6 times”. Further, in test [4] (ratio of K1/2 values), the “times less sensitive to cAMP than the T537S mutant” value is “about 2.5 times”, the “times less sensitive to cGMP in comparison with the T537S mutant” value is on record as “about 350 times”, the “times less sensitive to cGMP in comparison with the wild type” value is “about 150 times” and the “times more sensitive to cAMP in comparison with the wild type” value is about 3 times.

B4: T537S: known bovine α3 CNG channel subunit in which threonine 537 is replaced with serine (protein, UniProt Q03041 1-663, looked up, variant T537S)
Cyclic nucleotide-gated …: B1 Cyclic nucleotide-gated … with M537S
Turning to B4, in the test on α3-CNG channel (setting [5]), the “change in fluorescence signal” value was “only a very low increase in the fluorescence signal”. Also, the “relative selectivity: times more selective for cGMP” value in test [4] is “about 20 times”.

The values are drawn from patent US7951914B2, “Genetically modified cyclic-nucleotide controlled ion channels” (Forschungszentrum Julich GmbH, priority 2001, dated 2011).
